In assay [1] the target is DLC1 TBS (465-489C) synthetic peptide, fluorescein-labelled. Nature of the assay: fluorescence polarisation; R7R8 serially diluted (maximum 160 μM) into 0.5 μM fluorescein-labelled peptide; PBS with 1 mM TCEP and 0.02% Tween-20; room temperature; triplicate; one-site total binding model.
Assay [2] deals with RIAM TBS1 (4-30C) synthetic peptide, fluorescein-labelled. Described as above.
In assay [3] the target is talin 1 R7R8 domain protein (mouse) (mouse). The assay is described as follows: fluorescence polarisation; competition: R7R8 (30 μM) pre-incubated with DLC1 TBS-F (1 μM) 20 min at room temperature, diluted 1:2 into unlabeled peptide at twofold increasing concentrations up to 160 μM; one-site Ki fit.

Usually Kd stands for the equilibrium constant for the complex coming apart. Higher therefore signals weaker binding. Take “talin 1 R7R8 domain protein (mouse) (domain or fragment)”: the dissociation constant (Kd) in assay [1] was 4.92 µM; in assay [2], 9.21 µM.

B1: RIAM TBS1 (4-30C) synthetic peptide, unlabeled (peptide)
peptide: SEDIDQMFSTLLGEMDLLTQSLGVDTC
The term Ki denotes the equilibrium dissociation constant of an inhibitor or competing ligand from its target. For the molecule B1, in assay [3], the inhibition constant Ki stood at 90 µM.

These data come from PMC12412656.
